The numbers were not newly measured in paper PMC8168288, which cites them from elsewhere.

This series addresses BCOR peptide (Homo sapiens) (UniProt Q6W2J9). The series can be described thus: SPR.

Chain of BCOR peptide (Homo sapiens) (Q6W2J9 whole entry): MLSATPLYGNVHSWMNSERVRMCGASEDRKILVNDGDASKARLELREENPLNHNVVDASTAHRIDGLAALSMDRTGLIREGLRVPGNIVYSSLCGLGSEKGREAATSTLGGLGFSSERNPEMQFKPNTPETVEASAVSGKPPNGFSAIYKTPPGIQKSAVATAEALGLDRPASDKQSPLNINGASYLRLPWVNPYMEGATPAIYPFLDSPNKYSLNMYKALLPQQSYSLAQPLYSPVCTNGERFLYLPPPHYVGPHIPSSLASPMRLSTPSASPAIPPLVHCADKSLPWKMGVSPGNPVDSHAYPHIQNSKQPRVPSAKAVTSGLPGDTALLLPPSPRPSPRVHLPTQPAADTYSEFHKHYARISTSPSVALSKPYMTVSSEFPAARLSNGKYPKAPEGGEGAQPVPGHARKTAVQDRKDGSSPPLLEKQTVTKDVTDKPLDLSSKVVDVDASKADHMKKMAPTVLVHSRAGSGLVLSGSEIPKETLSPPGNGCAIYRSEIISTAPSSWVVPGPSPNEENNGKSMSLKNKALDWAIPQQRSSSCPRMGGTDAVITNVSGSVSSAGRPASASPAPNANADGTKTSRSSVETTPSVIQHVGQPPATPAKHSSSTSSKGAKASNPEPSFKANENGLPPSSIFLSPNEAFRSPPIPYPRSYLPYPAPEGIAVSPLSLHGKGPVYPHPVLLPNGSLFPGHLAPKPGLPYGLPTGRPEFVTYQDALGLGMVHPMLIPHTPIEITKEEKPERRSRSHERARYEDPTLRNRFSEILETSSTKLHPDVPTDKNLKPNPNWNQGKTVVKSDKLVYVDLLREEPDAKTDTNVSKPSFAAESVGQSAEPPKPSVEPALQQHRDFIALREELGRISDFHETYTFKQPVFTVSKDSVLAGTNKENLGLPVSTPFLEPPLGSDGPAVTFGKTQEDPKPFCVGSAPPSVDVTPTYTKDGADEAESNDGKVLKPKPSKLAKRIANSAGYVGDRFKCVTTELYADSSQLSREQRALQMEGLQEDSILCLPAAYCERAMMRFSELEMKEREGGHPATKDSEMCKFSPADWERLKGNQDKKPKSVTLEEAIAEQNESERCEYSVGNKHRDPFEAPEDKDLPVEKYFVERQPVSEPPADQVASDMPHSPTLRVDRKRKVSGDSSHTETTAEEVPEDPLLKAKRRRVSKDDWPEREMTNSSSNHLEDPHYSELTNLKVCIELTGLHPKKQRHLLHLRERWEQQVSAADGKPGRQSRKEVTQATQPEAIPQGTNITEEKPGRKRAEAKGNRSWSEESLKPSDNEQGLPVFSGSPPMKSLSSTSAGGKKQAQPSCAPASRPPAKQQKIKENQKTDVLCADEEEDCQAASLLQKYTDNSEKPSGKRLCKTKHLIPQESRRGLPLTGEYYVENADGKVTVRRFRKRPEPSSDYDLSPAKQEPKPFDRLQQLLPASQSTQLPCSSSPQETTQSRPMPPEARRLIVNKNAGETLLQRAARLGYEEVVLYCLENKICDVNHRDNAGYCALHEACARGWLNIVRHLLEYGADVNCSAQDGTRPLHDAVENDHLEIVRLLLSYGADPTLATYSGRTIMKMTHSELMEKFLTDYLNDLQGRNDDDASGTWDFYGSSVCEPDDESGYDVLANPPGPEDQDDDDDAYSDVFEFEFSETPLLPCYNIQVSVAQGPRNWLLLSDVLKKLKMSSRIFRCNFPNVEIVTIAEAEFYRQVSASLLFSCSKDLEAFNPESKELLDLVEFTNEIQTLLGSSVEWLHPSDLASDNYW

What is called Kd is the equilibrium constant for the complex coming apart. Consider BCL6 BTB (from UniProt P41182), for which the Kd was 6 µM.
